Columns and labels:
Aβ42 amyloid fibrils = Aβ42 amyloid fibrils (UniProt P05067); experiment: microfluidic diffusional sizing
[1] = target: Aβ42 oligomers formed during the in vitro aggregation of Aβ42 (M1–42) (UniProt P05067); experiment: TIRF single-molecule colocalisation imaging

- Kd (Aβ42 amyloid fibrils): 1000 nM
- stoichiometry N (DesAb-O per Aβ42 monomer) (Aβ42 amyloid fibrils): 0.005
Substance: AF647-labeled DesAb-O (antibody)
- percentage of coincidence of ThT and AF647-DesAb-O signals [1]: < 45%

From paper PMC7306997
